From paper PMC5268470 come the findings set out here.

Data set [1] can be described thus: [3H]-taurocholate uptake, Huh-7. Conditions: glycan lost; control: NTCP-WT.
The nature of data set [2]: cell surface biotinylation, immunoblot. Conditions: glycan lost; control: NTCP-WT. (In general: A western blot detects proteins with antibodies after separation by electrophoresis.)
A short description of data set [3]: anti-HA IP-immunoblot, ImageJ quantification. Conditions: glycan lost; control: NTCP-WT.
A short description of data set [4]: anti-HA confocal immunofluorescence, HepG2. The settings on record: glycan lost; control: NTCP-WT.
Data set [5] is described as follows: Myrcludex B-FITC cell-surface fluorescence, plate reader. The settings on record: glycan lost; control: NTCP-WT.
The nature of data set [6]: intracellular cccDNA qPCR, 3 days post infection, HepG2. Conditions: glycan lost; control: NTCP-WT.
A short description of data set [7]: [3H]-taurocholate uptake, 2 min, HepG2. The settings on record: glycan lost; control: NTCP-WT.
Data set [8] in a line: HBeAg ELISA, 3 days post infection, HepG2. The settings on record: glycan lost; control: NTCP-WT.
Data set [9] can be described thus: [3H]-taurocholate uptake, HepG2, untagged NTCP. The settings on record: glycan lost; control: untagged NTCP-WT.

B1: Na+-taurocholate cotransporting polypeptide (NTCP): NTCP-N5,11Q (protein)
parent chain: MEAHNASAPFNFTLPPNFGKRPTDLALSVILVFMLFFIMLSLGCTMEFSKIKAHLWKPKGLAIALVAQYGIMPLTAFVLGKVFRLKNIEALAILVCGCSPGGNLSNVFSLAMKGDMNLSIVMTTCSTFCALGMMPLLLYIYSRGIYDGDLKDKVPYKGIVISLVLVLIPCTIGIVLKSKRPQYMRYVIKGGMIIILLCSVAVTVLSAINVGKSIMFAMTPLLIATSSLMPFIGFLLGYVLSALFCLNGRCRRTVSMETGCQNVQLCSTILNVAFPPEVIGPLFFFPLLYMIFQLGEGLLLIAIFWCYEKFKTPKDKTKMIYTAATTEETIPGALGNGTYKGEDCSPCTA
Regarding B1, the “other: transport activity” value in data set [1] is listed as “decreases”. Besides, the localisation_or_trafficking entry in data set [2] is reported as “abolishes”; in [4] it was “changes”; in data set [5], “decreases”. The expression_or_secretion result in data set [3] is listed as “decreases”.

B2: Na+-taurocholate cotransporting polypeptide (NTCP): NTCP-N11Q (protein)
parent chain: MEAHNASAPFNFTLPPNFGKRPTDLALSVILVFMLFFIMLSLGCTMEFSKIKAHLWKPKGLAIALVAQYGIMPLTAFVLGKVFRLKNIEALAILVCGCSPGGNLSNVFSLAMKGDMNLSIVMTTCSTFCALGMMPLLLYIYSRGIYDGDLKDKVPYKGIVISLVLVLIPCTIGIVLKSKRPQYMRYVIKGGMIIILLCSVAVTVLSAINVGKSIMFAMTPLLIATSSLMPFIGFLLGYVLSALFCLNGRCRRTVSMETGCQNVQLCSTILNVAFPPEVIGPLFFFPLLYMIFQLGEGLLLIAIFWCYEKFKTPKDKTKMIYTAATTEETIPGALGNGTYKGEDCSPCTA
In the case of B2, the “other: HBV receptor activity (infection)” value in data set [6] and in [8] was “no change” in each case. The localisation_or_trafficking result is recorded as “no change” in [2], “no change” in data set [4] and “decreases” in data set [5]. In addition, the “other: transport activity” value in data set [7] is given as “no change”.

B3: Na+-taurocholate cotransporting polypeptide (NTCP): NTCP-N5Q (protein)
parent chain: MEAHNASAPFNFTLPPNFGKRPTDLALSVILVFMLFFIMLSLGCTMEFSKIKAHLWKPKGLAIALVAQYGIMPLTAFVLGKVFRLKNIEALAILVCGCSPGGNLSNVFSLAMKGDMNLSIVMTTCSTFCALGMMPLLLYIYSRGIYDGDLKDKVPYKGIVISLVLVLIPCTIGIVLKSKRPQYMRYVIKGGMIIILLCSVAVTVLSAINVGKSIMFAMTPLLIATSSLMPFIGFLLGYVLSALFCLNGRCRRTVSMETGCQNVQLCSTILNVAFPPEVIGPLFFFPLLYMIFQLGEGLLLIAIFWCYEKFKTPKDKTKMIYTAATTEETIPGALGNGTYKGEDCSPCTA
On to B3, for which the “other: HBV receptor activity (infection)” value in data set [6] and in data set [8] was “no change” each time. Besides, the localisation_or_trafficking entry in data set [2] is given as “no change”; in data set [4], “no change”; in data set [5], “decreases”. In addition, in data set [7], the “other: transport activity” value was “no change”.

B4: Na+-taurocholate cotransporting polypeptide (NTCP): untagged NTCP-N5,11Q (protein)
parent chain: MEAHNASAPFNFTLPPNFGKRPTDLALSVILVFMLFFIMLSLGCTMEFSKIKAHLWKPKGLAIALVAQYGIMPLTAFVLGKVFRLKNIEALAILVCGCSPGGNLSNVFSLAMKGDMNLSIVMTTCSTFCALGMMPLLLYIYSRGIYDGDLKDKVPYKGIVISLVLVLIPCTIGIVLKSKRPQYMRYVIKGGMIIILLCSVAVTVLSAINVGKSIMFAMTPLLIATSSLMPFIGFLLGYVLSALFCLNGRCRRTVSMETGCQNVQLCSTILNVAFPPEVIGPLFFFPLLYMIFQLGEGLLLIAIFWCYEKFKTPKDKTKMIYTAATTEETIPGALGNGTYKGEDCSPCTA
Turning to B4, the “other: transport activity” value in [9] is on record as “decreases”.
